{"source": "patent US20250171545A1", "molecular_target": "hFGFR1c and hKLB co-expressed on HEK293 cells (human) (UniProt P11362)", "assay": "cell-based or functional assay", "data": [{"substance": "REGN4366 (bispecific antibody)", "values": [{"measurement": "% activation, SRE-luciferase reporter, normalized against soluble FGF21", "value": 19, "unit": "%"}]}]}
